B1: Pistol ribozyme (parent)
chain: GGGUCGUUGUUCCAUAAUCGCGUGGAUAUGGCACGCAAGUUUCUACCGGGCACCGUAAAUGUCCGACUGGAGCCGUUCGGGCGGCUAUAAACAGACCUCAGGCCCGAAGCGUGGCGGCACCUGCCGCCGGUGGUAAAAAAGAUCGGAAGAGCACACGUCU

Variants of: B1
Assay: aptazyme ON/OFF ratio, guanine; higher = stronger switching; co-transcriptional cleavage with and without guanine

Variant	aptazyme ON/OFF ratio
GGGUCGGAAACCUAUAAUCGCGUGGAUAUGGCACGCAAGUUUCUACCGGGCACCGUAAAUGUCCGACUGGAGCCGUUCGGGCGGCUAUAAACAGACCUCAGGCCCGAAGCGUGGCGGCACCUGCCGCCGGUGGUAAAAAAGAUCGGAAGAGCACACGUCU [U7G U8A G9A U10A U11C C13U]	1.05
GGGUCGGAAACCAAUAAUCGCGUGGAUAUGGCACGCAAGUUUCUACCGGGCACCGUAAAUGUCCGACUGGAGCCGUUCGGGCGGCUAUAAACAGACCUCAGGCCCGAAGCGUGGCGGCACCUGCCGCCGGUGGUAAAAAAGAUCGGAAGAGCACACGUCU [U7G U8A G9A U10A U11C C13A]	1.1
GGGUCGGAAACCGAUAAUCGCGUGGAUAUGGCACGCAAGUUUCUACCGGGCACCGUAAAUGUCCGACUGGAGCCGUUCGGGCGGCUAUAAACAGACCUCAGGCCCGAAGCGUGGCGGCACCUGCCGCCGGUGGUAAAAAAGAUCGGAAGAGCACACGUCU [U7G U8A G9A U10A U11C C13G]	1.08
GGGUCGGAAAGAGAUAAUCGCGUGGAUAUGGCACGCAAGUUUCUACCGGGCACCGUAAAUGUCCGACUGGAGCCGUUCGGGCGGCUAUAAACAGACCUCAGGCCCGAAGCGUGGCGGCACCUGCCGCCGGUGGUAAAAAAGAUCGGAAGAGCACACGUCU [U7G U8A G9A U10A U11G C12A C13G]	1.06
GGGUCGGAAAGAAAUAAUCGCGUGGAUAUGGCACGCAAGUUUCUACCGGGCACCGUAAAUGUCCGACUGGAGCCGUUCGGGCGGCUAUAAACAGACCUCAGGCCCGAAGCGUGGCGGCACCUGCCGCCGGUGGUAAAAAAGAUCGGAAGAGCACACGUCU [U7G U8A G9A U10A U11G C12A C13A]	1.07
GGGUCGGAAAGACAUAAUCGCGUGGAUAUGGCACGCAAGUUUCUACCGGGCACCGUAAAUGUCCGACUGGAGCCGUUCGGGCGGCUAUAAACAGACCUCAGGCCCGAAGCGUGGCGGCACCUGCCGCCGGUGGUAAAAAAGAUCGGAAGAGCACACGUCU [U7G U8A G9A U10A U11G C12A]	1.06
GGGUCGGAAACUCAUAAUCGCGUGGAUAUGGCACGCAAGUUUCUACCGGGCACCGUAAAUGUCCGACUGGAGCCGUUCGGGCGGCUAUAAACAGACCUCAGGCCCGAAGCGUGGCGGCACCUGCCGCCGGUGGUAAAAAAGAUCGGAAGAGCACACGUCU [U7G U8A G9A U10A U11C C12U]	1.04
GGGUCGGAAACGCAUAAUCGCGUGGAUAUGGCACGCAAGUUUCUACCGGGCACCGUAAAUGUCCGACUGGAGCCGUUCGGGCGGCUAUAAACAGACCUCAGGCCCGAAGCGUGGCGGCACCUGCCGCCGGUGGUAAAAAAGAUCGGAAGAGCACACGUCU [U7G U8A G9A U10A U11C C12G]	1.07
GGGUCGGAAACACAUAAUCGCGUGGAUAUGGCACGCAAGUUUCUACCGGGCACCGUAAAUGUCCGACUGGAGCCGUUCGGGCGGCUAUAAACAGACCUCAGGCCCGAAGCGUGGCGGCACCUGCCGCCGGUGGUAAAAAAGAUCGGAAGAGCACACGUCU [U7G U8A G9A U10A U11C C12A]	1.12
GGGUCGGAAAAACAUAAUCGCGUGGAUAUGGCACGCAAGUUUCUACCGGGCACCGUAAAUGUCCGACUGGAGCCGUUCGGGCGGCUAUAAACAGACCUCAGGCCCGAAGCGUGGCGGCACCUGCCGCCGGUGGUAAAAAAGAUCGGAAGAGCACACGUCU [U7G U8A G9A U10A U11A C12A]	1.18
GGGUCGGAAAAGCAUAAUCGCGUGGAUAUGGCACGCAAGUUUCUACCGGGCACCGUAAAUGUCCGACUGGAGCCGUUCGGGCGGCUAUAAACAGACCUCAGGCCCGAAGCGUGGCGGCACCUGCCGCCGGUGGUAAAAAAGAUCGGAAGAGCACACGUCU [U7G U8A G9A U10A U11A C12G]	1.26
GGGUCGGAAAAUCAUAAUCGCGUGGAUAUGGCACGCAAGUUUCUACCGGGCACCGUAAAUGUCCGACUGGAGCCGUUCGGGCGGCUAUAAACAGACCUCAGGCCCGAAGCGUGGCGGCACCUGCCGCCGGUGGUAAAAAAGAUCGGAAGAGCACACGUCU [U7G U8A G9A U10A U11A C12U]	1.18
GGGUCGGAAAACCAUAAUCGCGUGGAUAUGGCACGCAAGUUUCUACCGGGCACCGUAAAUGUCCGACUGGAGCCGUUCGGGCGGCUAUAAACAGACCUCAGGCCCGAAGCGUGGCGGCACCUGCCGCCGGUGGUAAAAAAGAUCGGAAGAGCACACGUCU [U7G U8A G9A U10A U11A]	1.45
GGGUCGGAAAGCCAUAAUCGCGUGGAUAUGGCACGCAAGUUUCUACCGGGCACCGUAAAUGUCCGACUGGAGCCGUUCGGGCGGCUAUAAACAGACCUCAGGCCCGAAGCGUGGCGGCACCUGCCGCCGGUGGUAAAAAAGAUCGGAAGAGCACACGUCU [U7G U8A G9A U10A U11G]	1.28
GGGUCGGAAACCCAUAAUCGCGUGGAUAUGGCACGCAAGUUUCUACCGGGCACCGUAAAUGUCCGACUGGAGCCGUUCGGGCGGCUAUAAACAGACCUCAGGCCCGAAGCGUGGCGGCACCUGCCGCCGGUGGUAAAAAAGAUCGGAAGAGCACACGUCU [U7G U8A G9A U10A U11C]	1.03
GGGUCGGAAAAGGAUAAUCGCGUGGAUAUGGCACGCAAGUUUCUACCGGGCACCGUAAAUGUCCGACUGGAGCCGUUCGGGCGGCUAUAAACAGACCUCAGGCCCGAAGCGUGGCGGCACCUGCCGCCGGUGGUAAAAAAGAUCGGAAGAGCACACGUCU [U7G U8A G9A U10A U11A C12G C13G]	1.15
GGGUCGGAAAAGAAUAAUCGCGUGGAUAUGGCACGCAAGUUUCUACCGGGCACCGUAAAUGUCCGACUGGAGCCGUUCGGGCGGCUAUAAACAGACCUCAGGCCCGAAGCGUGGCGGCACCUGCCGCCGGUGGUAAAAAAGAUCGGAAGAGCACACGUCU [U7G U8A G9A U10A U11A C12G C13A]	1.1
GGGUCGGAAAAGUAUAAUCGCGUGGAUAUGGCACGCAAGUUUCUACCGGGCACCGUAAAUGUCCGACUGGAGCCGUUCGGGCGGCUAUAAACAGACCUCAGGCCCGAAGCGUGGCGGCACCUGCCGCCGGUGGUAAAAAAGAUCGGAAGAGCACACGUCU [U7G U8A G9A U10A U11A C12G C13U]	1.14

Variant	aptazyme ON/OFF ratio
GGGUCGGAAACGGAUAAUCGCGUGGAUAUGGCACGCAAGUUUCUACCGGGCACCGUAAAUGUCCGACUGGAGCCGUUCGGGCGGCUAUAAACAGACCUCAGGCCCGAAGCGUGGCGGCACCUGCCGCCGGUGGUAAAAAAGAUCGGAAGAGCACACGUCU [U7G U8A G9A U10A U11C C12G C13G]	1.05
GGGUCGGAAACGAAUAAUCGCGUGGAUAUGGCACGCAAGUUUCUACCGGGCACCGUAAAUGUCCGACUGGAGCCGUUCGGGCGGCUAUAAACAGACCUCAGGCCCGAAGCGUGGCGGCACCUGCCGCCGGUGGUAAAAAAGAUCGGAAGAGCACACGUCU [U7G U8A G9A U10A U11C C12G C13A]	1.11
GGGUCGGAAACGUAUAAUCGCGUGGAUAUGGCACGCAAGUUUCUACCGGGCACCGUAAAUGUCCGACUGGAGCCGUUCGGGCGGCUAUAAACAGACCUCAGGCCCGAAGCGUGGCGGCACCUGCCGCCGGUGGUAAAAAAGAUCGGAAGAGCACACGUCU [U7G U8A G9A U10A U11C C12G C13U]	1.1
GGGUCGGAAAAUUAUAAUCGCGUGGAUAUGGCACGCAAGUUUCUACCGGGCACCGUAAAUGUCCGACUGGAGCCGUUCGGGCGGCUAUAAACAGACCUCAGGCCCGAAGCGUGGCGGCACCUGCCGCCGGUGGUAAAAAAGAUCGGAAGAGCACACGUCU [U7G U8A G9A U10A U11A C12U C13U]	1.19
GGGUCGGAAAAUGAUAAUCGCGUGGAUAUGGCACGCAAGUUUCUACCGGGCACCGUAAAUGUCCGACUGGAGCCGUUCGGGCGGCUAUAAACAGACCUCAGGCCCGAAGCGUGGCGGCACCUGCCGCCGGUGGUAAAAAAGAUCGGAAGAGCACACGUCU [U7G U8A G9A U10A U11A C12U C13G]	1.12
GGGUCGGAAAAUAAUAAUCGCGUGGAUAUGGCACGCAAGUUUCUACCGGGCACCGUAAAUGUCCGACUGGAGCCGUUCGGGCGGCUAUAAACAGACCUCAGGCCCGAAGCGUGGCGGCACCUGCCGCCGGUGGUAAAAAAGAUCGGAAGAGCACACGUCU [U7G U8A G9A U10A U11A C12U C13A]	1.15
GGGUCGGAAACAUAUAAUCGCGUGGAUAUGGCACGCAAGUUUCUACCGGGCACCGUAAAUGUCCGACUGGAGCCGUUCGGGCGGCUAUAAACAGACCUCAGGCCCGAAGCGUGGCGGCACCUGCCGCCGGUGGUAAAAAAGAUCGGAAGAGCACACGUCU [U7G U8A G9A U10A U11C C12A C13U]	1.14
GGGUCGGAAACAAAUAAUCGCGUGGAUAUGGCACGCAAGUUUCUACCGGGCACCGUAAAUGUCCGACUGGAGCCGUUCGGGCGGCUAUAAACAGACCUCAGGCCCGAAGCGUGGCGGCACCUGCCGCCGGUGGUAAAAAAGAUCGGAAGAGCACACGUCU [U7G U8A G9A U10A U11C C12A C13A]	1.15
GGGUCGGAAACAGAUAAUCGCGUGGAUAUGGCACGCAAGUUUCUACCGGGCACCGUAAAUGUCCGACUGGAGCCGUUCGGGCGGCUAUAAACAGACCUCAGGCCCGAAGCGUGGCGGCACCUGCCGCCGGUGGUAAAAAAGAUCGGAAGAGCACACGUCU [U7G U8A G9A U10A U11C C12A C13G]	1.12
GGGUCGGAAACUGAUAAUCGCGUGGAUAUGGCACGCAAGUUUCUACCGGGCACCGUAAAUGUCCGACUGGAGCCGUUCGGGCGGCUAUAAACAGACCUCAGGCCCGAAGCGUGGCGGCACCUGCCGCCGGUGGUAAAAAAGAUCGGAAGAGCACACGUCU [U7G U8A G9A U10A U11C C12U C13G]	1.1
GGGUCGGAAACUAAUAAUCGCGUGGAUAUGGCACGCAAGUUUCUACCGGGCACCGUAAAUGUCCGACUGGAGCCGUUCGGGCGGCUAUAAACAGACCUCAGGCCCGAAGCGUGGCGGCACCUGCCGCCGGUGGUAAAAAAGAUCGGAAGAGCACACGUCU [U7G U8A G9A U10A U11C C12U C13A]	1.07
GGGUCGGAAACUUAUAAUCGCGUGGAUAUGGCACGCAAGUUUCUACCGGGCACCGUAAAUGUCCGACUGGAGCCGUUCGGGCGGCUAUAAACAGACCUCAGGCCCGAAGCGUGGCGGCACCUGCCGCCGGUGGUAAAAAAGAUCGGAAGAGCACACGUCU [U7G U8A G9A U10A U11C C12U C13U]	1.11
GGGUCGGAAAAAAAUAAUCGCGUGGAUAUGGCACGCAAGUUUCUACCGGGCACCGUAAAUGUCCGACUGGAGCCGUUCGGGCGGCUAUAAACAGACCUCAGGCCCGAAGCGUGGCGGCACCUGCCGCCGGUGGUAAAAAAGAUCGGAAGAGCACACGUCU [U7G U8A G9A U10A U11A C12A C13A]	1.09
GGGUCGGAAAAAUAUAAUCGCGUGGAUAUGGCACGCAAGUUUCUACCGGGCACCGUAAAUGUCCGACUGGAGCCGUUCGGGCGGCUAUAAACAGACCUCAGGCCCGAAGCGUGGCGGCACCUGCCGCCGGUGGUAAAAAAGAUCGGAAGAGCACACGUCU [U7G U8A G9A U10A U11A C12A C13U]	1.12
GGGUCGGAAAAAGAUAAUCGCGUGGAUAUGGCACGCAAGUUUCUACCGGGCACCGUAAAUGUCCGACUGGAGCCGUUCGGGCGGCUAUAAACAGACCUCAGGCCCGAAGCGUGGCGGCACCUGCCGCCGGUGGUAAAAAAGAUCGGAAGAGCACACGUCU [U7G U8A G9A U10A U11A C12A C13G]	1.04
GGGUCGGAAAACAAUAAUCGCGUGGAUAUGGCACGCAAGUUUCUACCGGGCACCGUAAAUGUCCGACUGGAGCCGUUCGGGCGGCUAUAAACAGACCUCAGGCCCGAAGCGUGGCGGCACCUGCCGCCGGUGGUAAAAAAGAUCGGAAGAGCACACGUCU [U7G U8A G9A U10A U11A C13A]	1.09
GGGUCGGAAAACGAUAAUCGCGUGGAUAUGGCACGCAAGUUUCUACCGGGCACCGUAAAUGUCCGACUGGAGCCGUUCGGGCGGCUAUAAACAGACCUCAGGCCCGAAGCGUGGCGGCACCUGCCGCCGGUGGUAAAAAAGAUCGGAAGAGCACACGUCU [U7G U8A G9A U10A U11A C13G]	1.06
GGGUCGGAAAACUAUAAUCGCGUGGAUAUGGCACGCAAGUUUCUACCGGGCACCGUAAAUGUCCGACUGGAGCCGUUCGGGCGGCUAUAAACAGACCUCAGGCCCGAAGCGUGGCGGCACCUGCCGCCGGUGGUAAAAAAGAUCGGAAGAGCACACGUCU [U7G U8A G9A U10A U11A C13U]	1.23

From the RNAGym collection of RNA variant scans (doi:10.1021/acssynbio.7b00057)
